Sequences and labels used below:
B1: Domain-exchanged one-armed anti-EGFR antibody (CH3-KiH domain-exchanged hu425 Fab on SEED AG heavy chain, with huFc_GA SEED) (antibody)
heavy: QVQLVQSGAEVKKPGASVKVSCKASGYTFTSHWMHWVRQAPGQGLEWIGEFNPSNGRTNYNEKFKSKATMTVDTSTNTAYMELSSLRSEDTAVYYCASRDYDYDGRYFDYWGQGTLVTVSSASTKGEPQVYTLPPSRDELTKNQVSLYCLVKGFYPSDIAVEWESNGQPENNYKTTPPVLDSDGSFFLYSKLTVDKSRWQQGNVFSCSVMHEALHNHYTQKSLSLSKSCDKTHTCPPCPAPELLGGPSVFLFPPKPKDTLMISRTPEVTCVVVDVSHEDPEVKFNWYVDGVEVHNAKTKPREEQYNSTYRVVSVLTVLHQDWLNGKEYKCKVSNKALPAPIEKTISKAKGQPFRPEVHLLPPSREEMTKNQVSLTCLARGFYPKDIAVEWESNGQPENNYKTTPSRQEPSQGTTTFAVTSKLTVDKSRWQQGNVFSCSVMHEALHNHYTQKTISLSPGK
chain: EPKSSDKTHTCPPCPAPELLGGPSVFLFPPKPKDTLMISRTPEVTCVVVDVSHEDPEVKFNWYVDGVEVHNAKTKPREEQYNSTYRVVSVLTVLHQDWLNGKEYKCKVSNKALPAPIEKTISKAKGQPREPQVYTLPPPSEELALNELVTLTCLVKGFYPSDIAVEWLQGSQELPREKYLTWAPVLDSDGSFFLYSILRVAAEDWKKGDTFSCSVMHEALHNHYTQKSLDRSPGK
light: DIQMTQSPSSLSASVGDRVTITCSASSSVTYMYWYQQKPGKAPKLLIYDTSNLASGVPSRFSGSGSGTDYTFTISSLQPEDIATYYCQQWSSHIFTFGQGTKVEIKRTVAEPQVYTLPPSRDELTKNQVSLTCLVKGFYPSDIAVEWESNGQPENNYKTTPPVLDSDGSFFLTSKLTVDKSRWQQGNVFSCSVMHEALHNHYTQKSLSLSGEC
notes: One Fab arm only (monovalent); also called One-armed CH3 domain-exchanged anti-EGFR antibody; one-armed domain-exchanged anti-EGFR antibody
B2: one-armed anti-EGFR SEED antibody with Charge pair CH3 domain-exchanged Fab, Variant 1 (antibody)
heavy: QVQLVQSGAEVKKPGASVKVSCKASGYTFTSHWMHWVRQAPGQGLEWIGEFNPSNGRTNYNEKFKSKATMTVDTSTNTAYMELSSLRSEDTAVYYCASRDYDYDGRYFDYWGQGTLVTVSSASTKGEPQVYTLPPSRKEMTKNQVSLTCLVKGFYPSDIAVEWESNGQPENNYKTTPPVLKSDGSFFLYSKLTVDKSRWQQGNVFSCSVMHEALHNHYTQKSLSLSKSCDKTHTCPPCPAPELLGGPSVFLFPPKPKDTLMISRTPEVTCVVVDVSHEDPEVKFNWYVDGVEVHNAKTKPREEQYNSTYRVVSVLTVLHQDWLNGKEYKCKVSNKALPAPIEKTISKAKGQPFRPEVHLLPPSREEMTKNQVSLTCLARGFYPKDIAVEWESNGQPENNYKTTPSRQEPSQGTTTFAVTSKLTVDKSRWQQGNVFSCSVMHEALHNHYTQKTISLSPGK
light: DIQMTQSPSSLSASVGDRVTITCSASSSVTYMYWYQQKPGKAPKLLIYDTSNLASGVPSRFSGSGSGTDYTFTISSLQPEDIATYYCQQWSSHIFTFGQGTKVEIKRTVAEPQVYTLPPSREEMTKNQVSLTCLVKGFYPSDIAVEWESNGQPENNYDTTPPVLDSDGSFFLYSDLTVDKSRWQQGNVFSCSVMHEALHNHYTQKSLSLSGEC
chain: EPKSSDKTHTCPPCPAPELLGGPSVFLFPPKPKDTLMISRTPEVTCVVVDVSHEDPEVKFNWYVDGVEVHNAKTKPREEQYNSTYRVVSVLTVLHQDWLNGKEYKCKVSNKALPAPIEKTISKAKGQPREPQVYTLPPPSEELALNELVTLTCLVKGFYPSDIAVEWLQGSQELPREKYLTWAPVLDSDGSFFLYSILRVAAEDWKKGDTFSCSVMHEALHNHYTQKSLDRSPGK
notes: hu425 Fv; one Fab arm only; also called Charge pair variant 1
B3: one-armed anti-EGFR SEED antibody with Azymetric CH3 domain-exchanged Fab, Variant 1 (antibody)
heavy: QVQLVQSGAEVKKPGASVKVSCKASGYTFTSHWMHWVRQAPGQGLEWIGEFNPSNGRTNYNEKFKSKATMTVDTSTNTAYMELSSLRSEDTAVYYCASRDYDYDGRYFDYWGQGTLVTVSSASTKGEPQVYVYPPSREEMTKNQVSLTCLVKGFYPSDIAVEWESNGQPENNYKTTPPVLDSDGSFALVSKLTVDKSRWQQGNVFSCSVMHEALHNHYTQKSLSLSKSCDKTHTCPPCPAPELLGGPSVFLFPPKPKDTLMISRTPEVTCVVVDVSHEDPEVKFNWYVDGVEVHNAKTKPREEQYNSTYRVVSVLTVLHQDWLNGKEYKCKVSNKALPAPIEKTISKAKGQPFRPEVHLLPPSREEMTKNQVSLTCLARGFYPKDIAVEWESNGQPENNYKTTPSRQEPSQGTTTFAVTSKLTVDKSRWQQGNVFSCSVMHEALHNHYTQKTISLSPGK
light: DIQMTQSPSSLSASVGDRVTITCSASSSVTYMYWYQQKPGKAPKLLIYDTSNLASGVPSRFSGSGSGTDYTFTISSLQPEDIATYYCQQWSSHIFTFGQGTKVEIKRTVAEPQVYVLPPSREEMTKNQVSLLCLVKGFYPSDIAVEWESNGQPENNYLTWPPVLDSDGSFFLYSKLTVDKSRWQQGNVFSCSVMHEALHNHYTQKSLSLSGEC
chain: EPKSSDKTHTCPPCPAPELLGGPSVFLFPPKPKDTLMISRTPEVTCVVVDVSHEDPEVKFNWYVDGVEVHNAKTKPREEQYNSTYRVVSVLTVLHQDWLNGKEYKCKVSNKALPAPIEKTISKAKGQPREPQVYTLPPPSEELALNELVTLTCLVKGFYPSDIAVEWLQGSQELPREKYLTWAPVLDSDGSFFLYSILRVAAEDWKKGDTFSCSVMHEALHNHYTQKSLDRSPGK
notes: hu425 Fv; one Fab arm only; also called hu425 CH3-Azymmetric variant 1
B4: one-armed anti-EGFR SEED antibody with Azymetric CH3 domain-exchanged Fab, Variant 2 (antibody)
heavy: QVQLVQSGAEVKKPGASVKVSCKASGYTFTSHWMHWVRQAPGQGLEWIGEFNPSNGRTNYNEKFKSKATMTVDTSTNTAYMELSSLRSEDTAVYYCASRDYDYDGRYFDYWGQGTLVTVSSASTKGEPQVYVLPPSREEMTKNQVSLLCLVKGFYPSDIAVEWESNGQPENNYLTWPPVLDSDGSFFLYSKLTVDKSRWQQGNVFSCSVMHEALHNHYTQKSLSLSKSCDKTHTCPPCPAPELLGGPSVFLFPPKPKDTLMISRTPEVTCVVVDVSHEDPEVKFNWYVDGVEVHNAKTKPREEQYNSTYRVVSVLTVLHQDWLNGKEYKCKVSNKALPAPIEKTISKAKGQPFRPEVHLLPPSREEMTKNQVSLTCLARGFYPKDIAVEWESNGQPENNYKTTPSRQEPSQGTTTFAVTSKLTVDKSRWQQGNVFSCSVMHEALHNHYTQKTISLSPGK
light: DIQMTQSPSSLSASVGDRVTITCSASSSVTYMYWYQQKPGKAPKLLIYDTSNLASGVPSRFSGSGSGTDYTFTISSLQPEDIATYYCQQWSSHIFTFGQGTKVEIKRTVAEPQVYVYPPSREEMTKNQVSLTCLVKGFYPSDIAVEWESNGQPENNYKTTPPVLDSDGSFALVSKLTVDKSRWQQGNVFSCSVMHEALHNHYTQKSLSLSGEC
chain: EPKSSDKTHTCPPCPAPELLGGPSVFLFPPKPKDTLMISRTPEVTCVVVDVSHEDPEVKFNWYVDGVEVHNAKTKPREEQYNSTYRVVSVLTVLHQDWLNGKEYKCKVSNKALPAPIEKTISKAKGQPREPQVYTLPPPSEELALNELVTLTCLVKGFYPSDIAVEWLQGSQELPREKYLTWAPVLDSDGSFFLYSILRVAAEDWKKGDTFSCSVMHEALHNHYTQKSLDRSPGK
notes: hu425 Fv; one Fab arm only; also called hu425 CH3-Azymmetric variant 2

The target in this experiment is T1, EGFR (on EGFR-expressing A431 cells) (UniProt P00533 25-1210, limits assumed).
T1 construct: whole, on cells; A431 is a human cell line; also called EGFR-positive cells; EGFR-overexpressing A431 cells
The experiment in a line: flow cytometry on A431 cells. A general note: Flow cytometry measures light scatter and fluorescence of single cells or particles in a stream.
For the molecule B1, the binding result is “binds”.

Take B2: the binding result was “binds”.

On to B3, for which the binding result is “binds”.

B4: the binding result is listed as “binds”.

(Values after patent US20180016354A1 (Merck KGaA, published 2018).)
